From the supplement of paper PMC10065799, “High-throughput profiling of sequence recognition by tyrosine kinases and SH2 domains using bacterial peptide display” (eLife, 2023)

Key:
[1] = biological target: FGFR1 (UniProt P11362); experiment: phosphorylation enrichment, bacterial display (enrichment ratio); higher = better substrate or ligand; peptides without Tyr show the background
[2] = tested on: c-Abl (mouse); experiment: as above
[3] = biological target: EPHB2 (UniProt P29323); experiment: as above
[4] = biological target: MERTK (UniProt Q12866); experiment: as above
[5] = biological target: Fes (UniProt P07332); experiment: as above
[6] = tested on: AncSZ; experiment: as above
[7] = biological target: Jak2 (UniProt O60674); experiment: as above
[8] = biological target: Fyn (UniProt P06241); experiment: as above
[9] = biological target: Hck (UniProt P08631); experiment: as above
[10] = tested on: Fer (mouse); experiment: as above
[11] = biological target: EPHB1 (UniProt P54762); experiment: as above
[12] = biological target: FGFR3 (UniProt P22607); experiment: as above
[13] = tested on: c-Src; experiment: as above
[14] = biological target: Grb2 SH2 (UniProt P62993); experiment: SH2 binding enrichment of the phosphorylated peptide, bacterial display (enrichment ratio); higher = better substrate or ligand; peptides without Tyr show the background
[15] = biological target: c-Src SH2; experiment: as above
[16] = biological target: SHP2-C SH2; experiment: as above
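Throughout, for SH2 binding enrichment of the phosphorylated peptide, bacterial display: peptide library displayed on the E. coli surface as eCPX fusions, selected cells deep-sequenced, score is each peptide's frequency after selection divided by its frequency in the input.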
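Throughout, for phosphorylation enrichment, bacterial display: 11-residue human phosphosite peptides and single-mutation variants displayed on the E. coli surface, counted by deep sequencing, each peptide's frequency after selection divided by its frequency in the unselected input library; frequency after pTyr selection over input frequency; kinase dosed for 20-30% of maximal phosphorylation in three min.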

MERTK, sequence (Q12866 whole entry, looked up): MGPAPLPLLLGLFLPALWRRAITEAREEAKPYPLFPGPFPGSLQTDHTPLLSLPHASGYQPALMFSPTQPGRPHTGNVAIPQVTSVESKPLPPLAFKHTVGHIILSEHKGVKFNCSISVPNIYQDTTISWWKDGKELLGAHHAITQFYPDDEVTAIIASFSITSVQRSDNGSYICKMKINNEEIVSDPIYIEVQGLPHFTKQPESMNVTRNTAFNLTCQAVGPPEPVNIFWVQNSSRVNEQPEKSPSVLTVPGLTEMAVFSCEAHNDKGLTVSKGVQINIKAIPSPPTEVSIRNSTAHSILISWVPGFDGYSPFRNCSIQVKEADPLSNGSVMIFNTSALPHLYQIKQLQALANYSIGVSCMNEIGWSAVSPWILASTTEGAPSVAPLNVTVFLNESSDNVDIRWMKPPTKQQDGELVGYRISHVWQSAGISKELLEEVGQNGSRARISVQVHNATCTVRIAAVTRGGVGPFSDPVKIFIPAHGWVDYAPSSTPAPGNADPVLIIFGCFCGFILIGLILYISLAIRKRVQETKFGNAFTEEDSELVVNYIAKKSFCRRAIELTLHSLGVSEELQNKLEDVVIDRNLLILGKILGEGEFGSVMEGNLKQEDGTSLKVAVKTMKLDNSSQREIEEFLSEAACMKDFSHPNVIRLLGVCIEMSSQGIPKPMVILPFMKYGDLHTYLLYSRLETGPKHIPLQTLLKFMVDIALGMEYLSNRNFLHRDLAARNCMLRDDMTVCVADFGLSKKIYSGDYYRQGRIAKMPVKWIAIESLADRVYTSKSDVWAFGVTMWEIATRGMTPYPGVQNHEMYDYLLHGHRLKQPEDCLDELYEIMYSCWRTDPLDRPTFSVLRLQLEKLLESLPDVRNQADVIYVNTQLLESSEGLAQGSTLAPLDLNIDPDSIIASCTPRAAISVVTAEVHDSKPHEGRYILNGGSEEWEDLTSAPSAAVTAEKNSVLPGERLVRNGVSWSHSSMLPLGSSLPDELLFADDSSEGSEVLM
EPHB2, sequence (P29323 whole entry, looked up): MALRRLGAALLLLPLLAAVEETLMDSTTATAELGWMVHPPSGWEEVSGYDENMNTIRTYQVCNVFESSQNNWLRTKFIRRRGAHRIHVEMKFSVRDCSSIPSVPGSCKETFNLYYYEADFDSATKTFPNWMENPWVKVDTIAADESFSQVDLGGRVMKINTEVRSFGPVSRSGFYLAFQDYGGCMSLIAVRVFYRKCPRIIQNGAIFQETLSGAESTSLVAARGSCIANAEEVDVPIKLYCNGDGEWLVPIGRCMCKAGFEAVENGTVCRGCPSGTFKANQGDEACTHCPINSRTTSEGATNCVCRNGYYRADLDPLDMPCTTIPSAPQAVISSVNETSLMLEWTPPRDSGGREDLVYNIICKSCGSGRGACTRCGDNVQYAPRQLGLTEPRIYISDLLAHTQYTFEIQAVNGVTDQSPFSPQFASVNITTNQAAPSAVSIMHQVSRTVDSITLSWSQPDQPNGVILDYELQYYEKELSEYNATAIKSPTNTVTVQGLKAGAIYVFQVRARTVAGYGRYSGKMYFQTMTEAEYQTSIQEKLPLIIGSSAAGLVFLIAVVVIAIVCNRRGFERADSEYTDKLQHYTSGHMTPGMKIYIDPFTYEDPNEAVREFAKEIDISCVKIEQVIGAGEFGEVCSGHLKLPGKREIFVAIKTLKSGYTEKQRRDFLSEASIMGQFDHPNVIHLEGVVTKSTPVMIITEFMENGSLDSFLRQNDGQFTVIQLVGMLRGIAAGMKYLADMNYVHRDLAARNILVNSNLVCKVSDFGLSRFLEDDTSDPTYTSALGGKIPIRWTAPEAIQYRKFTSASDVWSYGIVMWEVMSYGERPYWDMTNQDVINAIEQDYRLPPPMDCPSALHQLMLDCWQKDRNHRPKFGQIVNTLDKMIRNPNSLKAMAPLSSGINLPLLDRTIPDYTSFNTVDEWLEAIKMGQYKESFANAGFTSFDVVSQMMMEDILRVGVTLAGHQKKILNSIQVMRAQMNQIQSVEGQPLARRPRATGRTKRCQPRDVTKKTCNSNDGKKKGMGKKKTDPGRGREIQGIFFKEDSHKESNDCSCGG
EPHB1, sequence (P54762 whole entry, looked up): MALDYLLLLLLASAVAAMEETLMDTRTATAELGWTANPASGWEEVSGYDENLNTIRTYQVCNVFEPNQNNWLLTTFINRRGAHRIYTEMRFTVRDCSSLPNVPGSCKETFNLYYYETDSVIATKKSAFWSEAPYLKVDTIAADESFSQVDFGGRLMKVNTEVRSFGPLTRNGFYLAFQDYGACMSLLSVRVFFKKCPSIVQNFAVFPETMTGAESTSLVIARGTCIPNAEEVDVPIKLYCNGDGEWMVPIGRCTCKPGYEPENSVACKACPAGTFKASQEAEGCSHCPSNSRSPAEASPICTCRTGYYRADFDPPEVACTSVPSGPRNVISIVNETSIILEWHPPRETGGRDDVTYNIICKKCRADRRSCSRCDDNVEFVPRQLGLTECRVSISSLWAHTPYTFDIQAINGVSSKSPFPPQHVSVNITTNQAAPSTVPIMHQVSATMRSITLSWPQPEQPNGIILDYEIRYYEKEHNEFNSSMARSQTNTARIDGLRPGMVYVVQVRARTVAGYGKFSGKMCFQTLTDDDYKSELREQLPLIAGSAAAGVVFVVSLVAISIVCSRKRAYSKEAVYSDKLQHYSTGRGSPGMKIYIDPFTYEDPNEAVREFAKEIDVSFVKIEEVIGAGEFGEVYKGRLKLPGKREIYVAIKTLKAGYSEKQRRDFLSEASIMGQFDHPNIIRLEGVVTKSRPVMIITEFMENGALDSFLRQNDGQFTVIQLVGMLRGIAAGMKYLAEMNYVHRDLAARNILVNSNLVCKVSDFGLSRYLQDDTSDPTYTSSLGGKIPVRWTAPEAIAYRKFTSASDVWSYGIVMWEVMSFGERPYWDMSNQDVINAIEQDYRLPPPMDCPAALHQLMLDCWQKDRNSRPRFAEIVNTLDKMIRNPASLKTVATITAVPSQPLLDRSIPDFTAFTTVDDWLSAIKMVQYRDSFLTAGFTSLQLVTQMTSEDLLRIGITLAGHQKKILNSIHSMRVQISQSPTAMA
Fes, sequence (P07332 whole entry, looked up): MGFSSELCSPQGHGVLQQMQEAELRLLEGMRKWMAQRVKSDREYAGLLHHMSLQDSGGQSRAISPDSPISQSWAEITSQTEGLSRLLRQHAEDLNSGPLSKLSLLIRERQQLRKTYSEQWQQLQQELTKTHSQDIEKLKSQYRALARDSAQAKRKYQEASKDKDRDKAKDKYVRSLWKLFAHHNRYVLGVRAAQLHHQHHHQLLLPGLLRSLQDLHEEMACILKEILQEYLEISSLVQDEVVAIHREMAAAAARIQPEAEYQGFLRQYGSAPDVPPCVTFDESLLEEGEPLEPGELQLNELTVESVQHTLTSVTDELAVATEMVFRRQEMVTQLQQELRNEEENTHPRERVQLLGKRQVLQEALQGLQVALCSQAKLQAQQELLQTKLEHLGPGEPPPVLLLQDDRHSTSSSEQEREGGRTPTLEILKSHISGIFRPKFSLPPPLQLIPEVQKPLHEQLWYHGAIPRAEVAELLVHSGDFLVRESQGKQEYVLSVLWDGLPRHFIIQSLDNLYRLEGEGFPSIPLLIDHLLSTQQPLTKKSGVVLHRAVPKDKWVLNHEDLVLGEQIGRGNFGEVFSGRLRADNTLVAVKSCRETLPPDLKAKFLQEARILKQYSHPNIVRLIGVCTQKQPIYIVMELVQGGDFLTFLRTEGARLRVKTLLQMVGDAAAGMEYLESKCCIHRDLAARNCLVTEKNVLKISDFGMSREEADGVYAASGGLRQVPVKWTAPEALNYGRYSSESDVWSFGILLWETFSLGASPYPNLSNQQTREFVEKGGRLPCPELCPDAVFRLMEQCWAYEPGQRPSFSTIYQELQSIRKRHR
Jak2, sequence (O60674 whole entry, looked up): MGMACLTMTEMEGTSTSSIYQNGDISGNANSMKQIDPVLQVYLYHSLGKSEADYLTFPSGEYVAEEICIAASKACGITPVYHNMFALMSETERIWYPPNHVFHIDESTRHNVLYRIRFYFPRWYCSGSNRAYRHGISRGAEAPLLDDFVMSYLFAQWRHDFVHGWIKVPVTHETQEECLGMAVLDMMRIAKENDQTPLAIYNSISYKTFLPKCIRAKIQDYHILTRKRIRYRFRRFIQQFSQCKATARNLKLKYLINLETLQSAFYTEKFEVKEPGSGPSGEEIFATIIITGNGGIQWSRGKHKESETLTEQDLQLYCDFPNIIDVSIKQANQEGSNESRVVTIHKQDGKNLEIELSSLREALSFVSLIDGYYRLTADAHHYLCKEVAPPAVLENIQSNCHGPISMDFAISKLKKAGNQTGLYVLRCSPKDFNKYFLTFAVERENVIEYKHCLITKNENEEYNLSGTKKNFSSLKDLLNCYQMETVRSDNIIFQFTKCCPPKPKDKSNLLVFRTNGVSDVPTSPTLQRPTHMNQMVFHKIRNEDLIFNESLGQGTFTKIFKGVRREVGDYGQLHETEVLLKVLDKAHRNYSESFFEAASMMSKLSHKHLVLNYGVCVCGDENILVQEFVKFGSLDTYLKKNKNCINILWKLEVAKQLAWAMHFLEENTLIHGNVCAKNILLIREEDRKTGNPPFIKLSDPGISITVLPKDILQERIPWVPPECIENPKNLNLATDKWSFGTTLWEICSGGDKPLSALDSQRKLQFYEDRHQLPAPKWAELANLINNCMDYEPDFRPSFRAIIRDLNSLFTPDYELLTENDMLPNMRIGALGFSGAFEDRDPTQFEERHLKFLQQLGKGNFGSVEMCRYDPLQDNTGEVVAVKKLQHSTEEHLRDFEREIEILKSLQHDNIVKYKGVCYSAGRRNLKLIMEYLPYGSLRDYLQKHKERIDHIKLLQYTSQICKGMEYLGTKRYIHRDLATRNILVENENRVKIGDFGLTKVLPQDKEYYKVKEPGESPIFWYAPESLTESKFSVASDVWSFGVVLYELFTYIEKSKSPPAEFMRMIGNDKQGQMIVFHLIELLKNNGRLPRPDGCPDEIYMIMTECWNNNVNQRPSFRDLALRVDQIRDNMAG

Row | Sequence | phosphorylation enrichment [1] | phosphorylation enrichment [2] | phosphorylation enrichment [3] | phosphorylation enrichment [4] | phosphorylation enrichment [5] | phosphorylation enrichment [6] | phosphorylation enrichment [7] | phosphorylation enrichment [8] | phosphorylation enrichment [9] | phosphorylation enrichment [10] | phosphorylation enrichment [11] | phosphorylation enrichment [12] | phosphorylation enrichment [13] | SH2 binding enrichment [14] | SH2 binding enrichment [15] | SH2 binding enrichment [16]
1 | YGSGNYNDFGN [HNRNPA2B1_Y300] | 0.719 | 0.923 | 1.01 | 0.501 | 1.08 | 1.03 | 0.966 | 0.668 | 0.632 | 0.424 | 3 | 0.654 | 0.643 | 0.94 | 0.68 | 0.629
2 | KELAKYFKLHH [AK7_Y390_N389K_YF] | 0.456 | 0.439 | 0.459 | 0.51 | 0.626 | 0.596 | 0.487 | 0.505 | 0.484 | 0.466 | 0.394 | 0.543 | 0.493 | 0.759 | 0.497 | 0.635
3 | GSTLSYFGLAA [P2RX7_Y343] | 1.83 | 0.525 | 0.621 | 0.892 | 1.11 | 0.725 | 6.12 | 0.571 | 0.63 | 0.43 | 0.483 | 1.6 | 0.629 | 1.14 | 0.646 | 0.962
4 | PGQRVYVVAER [SHH_Y316] | 0.522 | 0.503 | 0.537 | 0.447 | 0.91 | 0.883 | 0.556 | 0.395 | 0.57 | 0.494 | 0.63 | 0.524 | 0.464 | 0.879 | 0.665 | 0.586
5 | RGKDNYETSQL [SPP1_Y225_S224N] | 0.565 | 0.62 | 0.628 | 0.689 | 0.773 | 0.857 | 0.74 | 0.549 | 0.56 | 0.541 | 0.662 | 0.634 | 0.681 | 0.681 | 0.59 | 0.469
6 | SVVVPYEPPKV [TP53_Y220_E224K] | 0.41 | 0.895 | 0.59 | 0.366 | 0.837 | 0.827 | 0.822 | 0.387 | 0.465 | 0.45 | 0.474 | 0.612 | 0.465 | 0.806 | 0.64 | 0.512
7 | FTGVEYSSCDT [EPHA3_Y937] | 0.478 | 0.755 | 0.637 | 0.419 | 1.12 | 1.12 | 0.905 | 0.524 | 0.545 | 0.491 | 0.629 | 0.721 | 0.555 | 0.832 | 1.92 | 1.14
8 | GKTFTYRSVFF [ZNF80_Y200] | 0.388 | 0.693 | 0.466 | 0.42 | 0.951 | 0.809 | 0.744 | 0.43 | 0.374 | 0.457 | 0.464 | 0.562 | 0.412 | 0.878 | 0.575 | 0.965
9 | SIKNKYVTALF [KCNH2_Y611_D609N_YF] | 0.417 | 0.487 | 0.459 | 0.41 | 0.653 | 0.672 | 0.566 | 0.402 | 0.465 | 0.371 | 0.394 | 0.507 | 0.41 | 0.994 | 0.671 | 1.06
10 | MSRNLYSGDYY [DDR2_Y736] | 7.13 | 0.821 | 14.6 | 9.32 | 0.788 | 2.08 | 1.64 | 5.12 | 5.53 | 2.13 | 11.3 | 5.43 | 5.09 | 0.878 | 0.845 | 0.612
11 | TLQSMFGCDVG [HLA-B_Y123_Y123F] | 0.515 | 0.637 | 0.85 | 0.511 | 1.09 | 0.989 | 0.852 | 0.648 | 0.489 | 0.523 | 0.657 | 0.7 | 0.44 | 0.79 | 0.541 | 0.684
12 | EHVMPYAANKN [GRIN2A_Y1431] | 0.361 | 0.374 | 0.302 | 0.322 | 0.463 | 0.53 | 0.56 | 0.313 | 0.358 | 0.253 | 0.392 | 0.344 | 0.375 | 0.792 | 0.484 | 0.747
13 | FPKARYHWLVL [APTX_Y214_YF] | 0.645 | 0.647 | 0.457 | 0.731 | 0.945 | 1.03 | 0.772 | 0.491 | 0.53 | 0.675 | 0.588 | 0.777 | 0.39 | 1.5 | 1.42 | 1.94
14 | INITIYGKTFR [EFHC1_Y177] | 0.583 | 1.05 | 0.683 | 0.439 | 1.37 | 1.13 | 1.4 | 0.438 | 0.573 | 0.936 | 0.648 | 0.781 | 0.508 | 1.01 | 0.5 | 0.658
15 | KVPCHYDDPGK [FOXG1_Y246_R244C] | 0.412 | 0.707 | 0.527 | 0.412 | 0.943 | 0.827 | 0.717 | 0.437 | 0.793 | 0.86 | 0.469 | 0.598 | 0.443 | 0.906 | 2.01 | 0.838
16 | FAKTQYPDIYA [CRX_Y63_V66I] | 0.449 | 0.526 | 0.427 | 0.396 | 0.693 | 0.518 | 0.563 | 0.519 | 0.709 | 0.359 | 0.355 | 0.668 | 0.572 | 0.881 | 0.533 | 1
